Results from article PMC7573975.

Target: Red_a PSI complex (one PSI monomer of the trimer; chimeric Photosystem I of Synechocystis PCC 6803) (Synechocystis sp. PCC6803 | Synechocystis sp. PCC6803 (endogenous)) (UniProt P29254)
Assay: cryo-EM structure; single particle Cryo-EM of the purified Red_a PSI trimer; 30 mM Tricine-NaOH pH 8, 150 mM NaCl, 0.02% DDM; 1 mg/ml chlorophyll; C1, symmetry expansion and multibody refinement with each monomer as a body

Q: “Red_a PSI complex (one PSI monomer of the trimer; chimeric Photosystem I of Synechocystis PCC 6803) (from UniProt P29254 1-751; P29255 1-731; P32422 1-81; P72712 1-86; P37277 1-157)” was tested. Which stoichiometry N did it give?
A: 3
